In assay [1] the target is T1, Recombinant USP7-TRAF protein (human, UniProt Q93009 1-208).
T1 construct: also called USP7-TRAF domain
The assay can be described thus: SPR; Biacore T200; USP7-TRAF immobilised on a CM5 chip by amine coupling to about 8000 RU; gradient concentrations of peptides injected at 30 μL/min; running buffer 0.05% (v/v) Tween 20 in PBS. Conditions: both partners purified.

The next assay deals with T2, GST-USP7-murine TRAF WT (murine, UniProt Q6A4J8 1-208).
T2 construct: also called GST-mUSP7-TRAF WT; murine USP7-TRAF
The assay can be described thus: pull-down. Conditions: both partners purified.

Assay [2] addresses T1, Recombinant USP7-TRAF protein. Put plainly: SPR. The conditions noted are these: both partners purified.
Assay [3] deals with USP7 (endogenous in SLK.iBAC-GFP cells) (human (endogenous in SLK.iBAC-GFP), UniProt Q93009 1-1102). Put plainly: cell-based or functional assay.
Chain of USP7 (endogenous in SLK.iBAC-GFP cells) (Q93009 whole entry): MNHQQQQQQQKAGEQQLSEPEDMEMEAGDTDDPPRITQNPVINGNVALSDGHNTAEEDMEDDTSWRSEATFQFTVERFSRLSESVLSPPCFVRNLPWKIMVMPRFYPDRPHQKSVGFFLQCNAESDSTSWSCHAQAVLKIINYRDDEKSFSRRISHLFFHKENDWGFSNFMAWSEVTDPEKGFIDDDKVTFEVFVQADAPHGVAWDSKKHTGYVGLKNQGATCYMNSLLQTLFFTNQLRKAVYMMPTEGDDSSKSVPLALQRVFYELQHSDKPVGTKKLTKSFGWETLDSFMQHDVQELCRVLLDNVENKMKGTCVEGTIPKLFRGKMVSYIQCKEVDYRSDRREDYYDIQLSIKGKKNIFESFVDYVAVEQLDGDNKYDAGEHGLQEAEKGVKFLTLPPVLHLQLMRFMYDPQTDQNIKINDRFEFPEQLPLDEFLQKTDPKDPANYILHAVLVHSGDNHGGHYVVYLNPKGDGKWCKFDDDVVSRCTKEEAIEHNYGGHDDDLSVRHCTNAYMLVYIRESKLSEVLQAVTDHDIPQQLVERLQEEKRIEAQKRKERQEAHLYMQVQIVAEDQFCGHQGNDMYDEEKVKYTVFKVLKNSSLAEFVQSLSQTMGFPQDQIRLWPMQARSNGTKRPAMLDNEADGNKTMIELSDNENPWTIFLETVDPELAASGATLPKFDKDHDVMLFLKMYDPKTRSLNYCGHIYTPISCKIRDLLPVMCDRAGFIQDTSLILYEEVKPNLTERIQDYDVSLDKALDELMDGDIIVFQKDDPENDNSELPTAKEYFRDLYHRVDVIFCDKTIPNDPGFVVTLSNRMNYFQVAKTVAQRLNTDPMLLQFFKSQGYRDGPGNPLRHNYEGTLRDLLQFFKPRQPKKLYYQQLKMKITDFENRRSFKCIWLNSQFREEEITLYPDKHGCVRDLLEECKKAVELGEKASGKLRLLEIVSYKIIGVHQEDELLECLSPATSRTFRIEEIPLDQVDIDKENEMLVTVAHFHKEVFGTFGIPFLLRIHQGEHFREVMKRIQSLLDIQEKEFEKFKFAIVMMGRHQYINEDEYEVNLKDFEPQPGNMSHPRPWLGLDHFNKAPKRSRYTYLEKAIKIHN

T1 sequence (Q93009 1-208): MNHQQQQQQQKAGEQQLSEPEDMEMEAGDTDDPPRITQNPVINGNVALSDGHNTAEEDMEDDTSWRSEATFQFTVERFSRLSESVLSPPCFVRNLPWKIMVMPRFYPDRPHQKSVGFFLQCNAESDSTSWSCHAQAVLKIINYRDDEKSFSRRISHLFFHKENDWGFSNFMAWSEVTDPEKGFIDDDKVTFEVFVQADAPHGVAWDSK
T2 sequence (Q6A4J8 1-208): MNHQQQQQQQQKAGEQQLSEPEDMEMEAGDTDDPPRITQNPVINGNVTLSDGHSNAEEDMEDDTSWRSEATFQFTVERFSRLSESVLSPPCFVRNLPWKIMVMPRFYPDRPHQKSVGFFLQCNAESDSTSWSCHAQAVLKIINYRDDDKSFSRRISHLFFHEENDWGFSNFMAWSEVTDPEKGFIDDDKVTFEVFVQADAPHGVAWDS

As for Ac-EVADEDNSEI-NH2 (also called peptide p2) [p2], the dissociation constant (Kd) in assay [1] came to 9.02 µM.
Regarding Ac-YGRKKRRQRRRGGVSQSPSQNSN-NH2 (also called murine-derived p8) [p8-m], the binding result in the assay with GST-USP7-murine TRAF WT is on record as “binds”.

B1: p8 (peptide)
peptide: Ac-VNQSASQSSN-NH2
notes: also called peptide p8; human-derived p8
Turning to B1, the Kd in assay [2] worked out at 3.16 µM.
Turning to Ac-YGRKKRRQRRRGGVNQSASQSSN-NH2 [p8 fused to an N-terminal Tat(47-57) peptide via a GG linker], the “IC50 of inhibition of KSHV lytic reactivation in SLK.iBAC-GFP cells (blocks OTUD4-USP7)” value in assay [3] was 52.6 µM.

These data come from PMC12047801 (PLOS Pathogens, 2025).
